T1: PUF4 RNA-binding domain (Saccharomyces cerevisiae, UniProt P25339 537-888)
T1 sequence: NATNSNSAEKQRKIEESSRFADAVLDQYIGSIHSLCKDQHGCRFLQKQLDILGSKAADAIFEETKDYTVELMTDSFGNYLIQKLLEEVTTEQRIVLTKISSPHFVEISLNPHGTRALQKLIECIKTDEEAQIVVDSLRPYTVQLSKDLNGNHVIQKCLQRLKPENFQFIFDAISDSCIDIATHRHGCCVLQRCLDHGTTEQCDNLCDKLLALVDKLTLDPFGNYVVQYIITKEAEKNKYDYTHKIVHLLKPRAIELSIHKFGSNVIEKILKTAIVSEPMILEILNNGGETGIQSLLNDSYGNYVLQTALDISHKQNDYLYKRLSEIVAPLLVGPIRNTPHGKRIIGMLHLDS


What follows are binders tested against T1, PUF4 RNA-binding domain (assay: Mg; RNA-MaP; 20 mM Na-HEPES pH 7.4, 30 mM KOAc, 0.75 mM MgCl2, 0.1% Tween-20, 5% glycerol, 0.1 mg/mL BSA, 2 mM DTT; 25 C; 0.0125-409.6 nM protein). Conditions: tags: N-His6-TEV cleaved; C-SNAP kept, Cy3B-labelled; label: tethered on chip by stalled RNA polymerase.

| Binder | Kd [nM] |
| --- | --- |
| Ie_S4_P3E.2_K3.1_C3.2_H3.1_A3.1_F3.1_[+8CCCTT]_T3.2 (ssRNA) RNA: UUUGACAACUGAUCGUUCUUUCUCUUGUAUAUACCCUUUAUUCUUUCUCGAUCAGUUGUCUUU | 6.29 |
| Ie_S4_P4E.1_K4.1_C4.1_H4.1_[+1CT]_A4.1_F4.1_T4.1 (ssRNA) RNA: UUUGACAACUGAUCGUUCUUUCUUCUGUAUAUUAUUCUUUCUCGAUCAGUUGUCUUU | 0.223 |
| Ie_S4_P4E.1_K4.1_C4.1_H4.1_[+1CTCT]_A4.1_F4.1_T4.1 (ssRNA) RNA: UUUGACAACUGAUCGUUCUUUCUUCUCUGUAUAUUAUUCUUUCUCGAUCAGUUGUCUUU | 0.208 |
| Ie_S4_P4E.1_K4.1_C4.1_H4.1_[+1CCCT]_A4.1_F4.1_T4.1 (ssRNA) RNA: UUUGACAACUGAUCGUUCUUUCUUCCCUGUAUAUUAUUCUUUCUCGAUCAGUUGUCUUU | 0.155 |
| Ie_S4_P3E.2_K3.1_C3.2_H3.1_[+3C]_A3.1_F3.1_T3.2 (ssRNA) RNA: UUUGACAACUGAUCGUUCUUUCUCUUGUCAUAUAUAUUCUUUCUCGAUCAGUUGUCUUU | 6.8 |
| Ie_S4_P3E.2_K3.1_C3.2_H3.1_A3.1_F3.1_[+8T]_T3.2 (ssRNA) RNA: UUUGACAACUGAUCGUUCUUUCUCUUGUAUAUAUUAUUCUUUCUCGAUCAGUUGUCUUU | 1.33 |
| Ie_S4_P3E.2_K3.1_C3.2_H3.1_A3.1_F3.1_[+7C]_T3.2 (ssRNA) RNA: UUUGACAACUGAUCGUUCUUUCUCUUGUAUAUCAUAUUCUUUCUCGAUCAGUUGUCUUU | 2.77 |
| Ie_S4_P3E.2_K3.1_C3.2_H3.1_A3.1_[+6C]_F3.1_T3.2 (ssRNA) RNA: UUUGACAACUGAUCGUUCUUUCUCUUGUAUACUAUAUUCUUUCUCGAUCAGUUGUCUUU | 0.411 |
| Ie_S4_P3E.2_K3.1_C3.2_H3.1_[+1CCT]_A3.1_F3.1_T3.2 (ssRNA) RNA: UUUGACAACUGAUCGUUCUUUCUCUUCCUGUAUAUAUAUUCUUUCUCGAUCAGUUGUCUUU | 1.07 |
| Ie_S4_P3E.2_K3.1_C3.2_H3.1_[+4CCT]_A3.1_F3.1_T3.2 (ssRNA) RNA: UUUGACAACUGAUCGUUCUUUCUCUUGUACCUUAUAUAUUCUUUCUCGAUCAGUUGUCUUU | 1.24 |
| Ie_S4_P3E.2_K3.1_C3.2_H3.1_[+2TTT]_A3.1_F3.1_T3.2 (ssRNA) RNA: UUUGACAACUGAUCGUUCUUUCUCUUGUUUUAUAUAUAUUCUUUCUCGAUCAGUUGUCUUU | 16.5 |
| Ie_S4_P3E.2_K3.1_C3.2_[+-1TTT]_H3.1_A3.1_F3.1_T3.2 (ssRNA) RNA: UUUGACAACUGAUCGUUCUUUCUCUUUUUGUAUAUAUAUUCUUUCUCGAUCAGUUGUCUUU | 1.03 |
| Ie_S4_P3E.2_K3.1_C3.2_[+-1CTT]_H3.1_A3.1_F3.1_T3.2 (ssRNA) RNA: UUUGACAACUGAUCGUUCUUUCUCUCUUUGUAUAUAUAUUCUUUCUCGAUCAGUUGUCUUU | 1.24 |
| Ie_S4_P3E.2_K3.1_C3.2_H3.1_[+4CCC]_A3.1_F3.1_T3.2 (ssRNA) RNA: UUUGACAACUGAUCGUUCUUUCUCUUGUACCCUAUAUAUUCUUUCUCGAUCAGUUGUCUUU | 1.57 |
| Ie_S4_P3E.2_K3.1_C3.2_H3.1_[+1CTT]_A3.1_F3.1_T3.2 (ssRNA) RNA: UUUGACAACUGAUCGUUCUUUCUCUUCUUGUAUAUAUAUUCUUUCUCGAUCAGUUGUCUUU | 0.982 |
| Ie_S4_P3E.2_K3.1_C3.2_H3.1_[+3CTT]_A3.1_F3.1_T3.2 (ssRNA) RNA: UUUGACAACUGAUCGUUCUUUCUCUUGUCUUAUAUAUAUUCUUUCUCGAUCAGUUGUCUUU | 11.4 |
| Ie_S4_P3E.2_K3.1_C3.2_H3.1_[+4CTC]_A3.1_F3.1_T3.2 (ssRNA) RNA: UUUGACAACUGAUCGUUCUUUCUCUUGUACUCUAUAUAUUCUUUCUCGAUCAGUUGUCUUU | 1.08 |
| Ie_S4_P3E.2_K3.1_C3.2_H3.1_[+1TCC]_A3.1_F3.1_T3.2 (ssRNA) RNA: UUUGACAACUGAUCGUUCUUUCUCUUUCCGUAUAUAUAUUCUUUCUCGAUCAGUUGUCUUU | 25.7 |
| Ie_S4_P3E.2_K3.1_C3.2_H3.1_[+2CCT]_A3.1_F3.1_T3.2 (ssRNA) RNA: UUUGACAACUGAUCGUUCUUUCUCUUGCCUUAUAUAUAUUCUUUCUCGAUCAGUUGUCUUU | 41.1 |
| Ie_S4_P3E.2_K3.1_C3.2_H3.1_[+3CCC]_A3.1_F3.1_T3.2 (ssRNA) RNA: UUUGACAACUGAUCGUUCUUUCUCUUGUCCCAUAUAUAUUCUUUCUCGAUCAGUUGUCUUU | 13.7 |
| Ie_S4_P3E.2_K3.1_C3.2_H3.1_[+2TCC]_A3.1_F3.1_T3.2 (ssRNA) RNA: UUUGACAACUGAUCGUUCUUUCUCUUGUCCUAUAUAUAUUCUUUCUCGAUCAGUUGUCUUU | 10.8 |
| Ic_S2_P3E.1_K3.1_C3.1_H3.1_A3.1_[T5A]_F3.1_T3.1 (ssRNA) RNA: UUUGAUUAAUAUGAUAUCGUUCUUUCUUGUAAAUAUUCUUUCUCGAUAUCAUAUUAAUCUUU | 14.9 |
| Ib_S2_P3E.1_K3.1_C3.1_H3.1_[G2C]_A3.1_[T5C]_F3.1_T3.1 (ssRNA) RNA: UUUGAUUAAUAUGAUAUCGUUCUUUCUUCUACAUAUUCUUUCUCGAUAUCAUAUUAAUCUUU | > 2300 |

| Binder | Kd [nM] |
| --- | --- |
| Ib_S2_P3E.1_K3.1_C3.1_H3.1_[G2A]_A3.1_[T5C]_F3.1_T3.1 (ssRNA) RNA: UUUGAUUAAUAUGAUAUCGUUCUUUCUUAUACAUAUUCUUUCUCGAUAUCAUAUUAAUCUUU | 467 |
| Ib_S2_P3E.1_K3.1_C3.1_H3.1_[T1A]_A3.1_[A6G]_F3.1_T3.1 (ssRNA) RNA: UUUGAUUAAUAUGAUAUCGUUCUUUCUAGUAUGUAUUCUUUCUCGAUAUCAUAUUAAUCUUU | 257 |
| Ib_S2_P3E.1_K3.1_C3.1_H3.1_[G2A]_A3.1_[T5A]_F3.1_T3.1 (ssRNA) RNA: UUUGAUUAAUAUGAUAUCGUUCUUUCUUAUAAAUAUUCUUUCUCGAUAUCAUAUUAAUCUUU | 1820 |
| Ie_S4_P3E.2_K3.1_C3.2_[+-1CTCTC]_H3.1_A3.1_F3.1_T3.2 (ssRNA) RNA: UUUGACAACUGAUCGUUCUUUCUCUCUCUCUGUAUAUAUAUUCUUUCUCGAUCAGUUGUCUUU | 0.676 |
| Ie_S4_P3E.2_K3.1_C3.2_H3.1_[+3TCTCT]_A3.1_F3.1_T3.2 (ssRNA) RNA: UUUGACAACUGAUCGUUCUUUCUCUUGUUCUCUAUAUAUAUUCUUUCUCGAUCAGUUGUCUUU | 11.8 |
| Ie_S4_P3E.2_K3.1_C3.2_H3.1_[+1TTCCT]_A3.1_F3.1_T3.2 (ssRNA) RNA: UUUGACAACUGAUCGUUCUUUCUCUUUUCCUGUAUAUAUAUUCUUUCUCGAUCAGUUGUCUUU | 1.16 |
| Ie_S4_P3E.2_K3.1_C3.2_H3.1_[+3TTCCT]_A3.1_F3.1_T3.2 (ssRNA) RNA: UUUGACAACUGAUCGUUCUUUCUCUUGUUUCCUAUAUAUAUUCUUUCUCGAUCAGUUGUCUUU | 19.9 |
| Ie_S4_P3E.2_K3.1_C3.2_H3.1_[+2TCTCT]_A3.1_F3.1_T3.2 (ssRNA) RNA: UUUGACAACUGAUCGUUCUUUCUCUUGUCUCUUAUAUAUAUUCUUUCUCGAUCAGUUGUCUUU | 23.6 |
| Ie_S4_P3E.2_K3.1_C3.2_H3.1_[+1CCTCT]_A3.1_F3.1_T3.2 (ssRNA) RNA: UUUGACAACUGAUCGUUCUUUCUCUUCCUCUGUAUAUAUAUUCUUUCUCGAUCAGUUGUCUUU | 0.898 |
| Ie_S4_P3E.2_K3.1_C3.2_H3.1_[+3CCTCT]_A3.1_F3.1_T3.2 (ssRNA) RNA: UUUGACAACUGAUCGUUCUUUCUCUUGUCCUCUAUAUAUAUUCUUUCUCGAUCAGUUGUCUUU | 21.3 |
| Ie_S4_P4E.1_K4.1_C4.1_H4.1_[+1CTC]_A4.1_F4.1_T4.1 (ssRNA) RNA: UUUGACAACUGAUCGUUCUUUCUUCUCGUAUAUUAUUCUUUCUCGAUCAGUUGUCUUU | 8.22 |
| Ie_S4_P4E.1_K4.1_C4.1_H4.1_[+1TCC]_A4.1_F4.1_T4.1 (ssRNA) RNA: UUUGACAACUGAUCGUUCUUUCUUUCCGUAUAUUAUUCUUUCUCGAUCAGUUGUCUUU | 7.21 |
| Ie_S4_P4E.1_K4.1_C4.1_H4.1_[+1TTT]_A4.1_F4.1_T4.1 (ssRNA) RNA: UUUGACAACUGAUCGUUCUUUCUUUUUGUAUAUUAUUCUUUCUCGAUCAGUUGUCUUU | 0.249 |
| Ie_S4_P3E.2_K3.1_C3.2_[+-1CCTC]_H3.1_A3.1_F3.1_T3.2 (ssRNA) RNA: UUUGACAACUGAUCGUUCUUUCUCUCCUCUGUAUAUAUAUUCUUUCUCGAUCAGUUGUCUUU | 1.06 |
| Ie_S4_P3E.2_K3.1_C3.2_H3.1_[+1CCTC]_A3.1_F3.1_T3.2 (ssRNA) RNA: UUUGACAACUGAUCGUUCUUUCUCUUCCUCGUAUAUAUAUUCUUUCUCGAUCAGUUGUCUUU | 64 |
| Ie_S4_P3E.2_K3.1_C3.2_H3.1_[+1TTCC]_A3.1_F3.1_T3.2 (ssRNA) RNA: UUUGACAACUGAUCGUUCUUUCUCUUUUCCGUAUAUAUAUUCUUUCUCGAUCAGUUGUCUUU | 45.7 |
| Ie_S4_P3E.2_K3.1_C3.2_[+-1CCCT]_H3.1_A3.1_F3.1_T3.2 (ssRNA) RNA: UUUGACAACUGAUCGUUCUUUCUCUCCCUUGUAUAUAUAUUCUUUCUCGAUCAGUUGUCUUU | 0.775 |
| Ie_S4_P3E.2_K3.1_C3.2_H3.1_[+3CCCT]_A3.1_F3.1_T3.2 (ssRNA) RNA: UUUGACAACUGAUCGUUCUUUCUCUUGUCCCUAUAUAUAUUCUUUCUCGAUCAGUUGUCUUU | 32.7 |
| Ie_S4_P3E.2_K3.1_C3.2_H3.1_[+3TTCC]_A3.1_F3.1_T3.2 (ssRNA) RNA: UUUGACAACUGAUCGUUCUUUCUCUUGUUUCCAUAUAUAUUCUUUCUCGAUCAGUUGUCUUU | 23.4 |
| Ie_S4_P3E.2_K3.1_C3.2_H3.1_[+1TC]_A3.1_F3.1_T3.2 (ssRNA) RNA: UUUGACAACUGAUCGUUCUUUCUCUUUCGUAUAUAUAUUCUUUCUCGAUCAGUUGUCUUU | 50.6 |
| Ie_S4_P3E.2_K3.1_C3.2_H3.1_A3.1_[+6TC]_F3.1_T3.2 (ssRNA) RNA: UUUGACAACUGAUCGUUCUUUCUCUUGUAUAUCUAUAUUCUUUCUCGAUCAGUUGUCUUU | 2.11 |
| Ie_S4_P3E.2_K3.1_C3.2_H3.1_[+2CT]_A3.1_F3.1_T3.2 (ssRNA) RNA: UUUGACAACUGAUCGUUCUUUCUCUUGCUUAUAUAUAUUCUUUCUCGAUCAGUUGUCUUU | 60.8 |
| Ie_S4_P3E.2_K3.1_C3.2_H3.1_A3.1_F3.1_[+8CC]_T3.2 (ssRNA) RNA: UUUGACAACUGAUCGUUCUUUCUCUUGUAUAUACCUAUUCUUUCUCGAUCAGUUGUCUUU | 2.91 |
